# Assay results reported in the supplement of paper PMC12764529.
# ± gives the half width of the 95% confidence interval.
# Columns and labels:
# [1] = folding stability dG unfold from chymotrypsin proteolysis; higher = more stable
# Procedure, shortened: (§1)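 Sequencing followed digestion of designed mini-proteins with trypsin and chymotrypsin, each at 11 concentrations in threefold dilutions together with a no-protease condition. The mini-proteins were under 80 residues, had no cysteine, sat in a PA-tagged cDNA display construct, and were kept only if AlphaFold2 dimer inter-PAE was above 15. From the counts, Bayesian fitting gave K50, and unfolding free energy was derived against a sequence-predicted unfolded-state K50 and a shared folded-state K50, per protease or combined.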
# [2] = folding stability dG unfold from trypsin proteolysis; higher = more stable
# Procedure, shortened: as §1
# [3] = folding stability dG unfold (combined trypsin and chymotrypsin); higher = more stable
# Procedure, shortened: as §1
Sequence,folding stability dG unfold [1],folding stability dG unfold [2],folding stability dG unfold [3]
SAGGSAGGSAGGKKKYIVVKVKVEVDENGNVTITLPNGKKITIPKEKVEVKPDGYLVIKLSAGGSAGGSAGG [r7_684_TrROS_Hall],2.05 ± 0.028 kcal/mol,1.98 ± 0.07 kcal/mol,2.05 ± 0.087 kcal/mol
SAGGSAGGSAGGSMKYITITETTEEEVLVLYYDPETGEPVREEKVLRTVTKTRTLPPDLKSAGGSAGGSAGG [r7_573_JUSTAS],0.434 ± 0.19 kcal/mol,-0.236 ± 0.23 kcal/mol,0.189 ± 0.14 kcal/mol
SAGSMPPSTTTSEEVTVGGKKVKRTTTVYRAPNGTPSVTSTYTLGETPGVEDPLSGKALTPEERAAAAASAG [r5_138_JUSTAS],0.564 ± 0.28 kcal/mol,0.417 ± 0.21 kcal/mol,0.668 ± 0.16 kcal/mol
SAGGMEPPPMLLLVIEIENEDGEKLRIVVPLEDLEEVLKALGLSKEEVRIKKIEVVPLTDEQLKELLESAGG [r13_850_TrROS_Hall],3.57 ± 0.25 kcal/mol,3.43 ± 0.35 kcal/mol,3.32 ± 0.28 kcal/mol
SAGGEEVILTLPDGSPVRVIPDEGTASFELPGYRVETEVLPDGRIRLTVRDPAAGALVRELDLGLLRSAGGS [r16_760_JUSTAS],0.789 ± 0.068 kcal/mol,0.158 ± 0.039 kcal/mol,0.623 ± 0.039 kcal/mol
SAGGSAGGSHRIIFRINSPGMPPRQAADRIADMLQEEHGLKIKGVDIWTYPNGSYWVTITIEPSAGGSAGGS [r12_781_TrROS],2.98 ± 0.042 kcal/mol,2.77 ± 0.055 kcal/mol,2.89 ± 0.073 kcal/mol
SAGGSAGMPKVRIPIEEDPENGNILIRVKMPNSGREHEYHIPGNLKEAKENFEDHFGFDITDVEIWSAGGSA [r15_101_TrROS],-0.984 ± 0.58 kcal/mol,0.364 ± 0.23 kcal/mol,-0.0816 ± 0.38 kcal/mol
SAGGSVFESEKDLRVEVYKIKVGTTLGKEKNGKPKKPKFKEKEVLVVKVEVPLEDGTTLSAEFTFGSAGGSA [r2_218_TrMRF],3.24 ± 0.073 kcal/mol,1.25 ± 0.13 kcal/mol,2.52 ± 0.26 kcal/mol
SAGGSAGGSAGFKLPPGQEVVFQVSIKLPDGPTQTLEDLENMPPENIDFLEIEISWVPVDSAGGSAGGSAGG [r11_899_TrROS],1.81 ± 0.12 kcal/mol,1.09 ± 0.14 kcal/mol,1.57 ± 0.2 kcal/mol
SAGKMVKITITGPADKIKELLKKLFPNAEVEVKKVNGKLVFYFKPGEEVIEIEITDKDGNKLTIKIEKVSAG [r5_123_TrROS_Hall],3.74 ± 0.087 kcal/mol,2.54 ± 0.066 kcal/mol,3.48 ± 0.17 kcal/mol
SAGGVLPSDPVTVTVTIPVPAANAETDGRLPPQPQTINLEIGGPSEEAIRALLEALFPPGTEYEILLSAGGS [r16_282_JUSTAS],0.691 ± 0.034 kcal/mol,1.77 ± 0.064 kcal/mol,1.32 ± 0.06 kcal/mol
SAGGGELYIMFKFDFTFWINNGTISFDMYIMIRIPIPPPPVPIELEDDPDGSYKYEYPNGKEHEVPNSAGGS [r16_136_TrROS],3.16 ± 0.079 kcal/mol,3.15 ± 0.1 kcal/mol,3.23 ± 0.22 kcal/mol
SAGGMVIEKDGDYEYVLLLVDSPEGFPVEVAKELLKKEFGLKEIKVLSAKPLPNGIRLVLVKNKFEKSAGGS [r16_234_TrMRF],1.57 ± 0.062 kcal/mol,0.875 ± 0.023 kcal/mol,1.3 ± 0.052 kcal/mol
SAGGSAGGSAGGSVSVNIPLEELKERVPPSLSVSVSPTPVPEGGGVRVPVTLTSPAELGSAGGSAGGSAGGS [r4_119_JUSTAS],0.471 ± 0.025 kcal/mol,1 ± 0.031 kcal/mol,0.763 ± 0.041 kcal/mol
SAGGSAGGSAGSPKGKPPKPTIEYEPITFEIPNPDGQGFELEISIIRMPGNGQEFIGISFSAGGSAGGSAGG [r11_1024_TrROS],1.86 ± 0.069 kcal/mol,0.611 ± 0.086 kcal/mol,1.58 ± 0.17 kcal/mol
PFDIRINVEYERDPDNGKEYIEVSIMVWDGNPEQARDIAKEILEEHFGWKIKDVKVERFPDMYMITFKIRLS [r1_337_TrROS],4.18 ± 0.082 kcal/mol,3.46 ± 0.12 kcal/mol,3.78 ± 0.32 kcal/mol
SMFTLVLPDGSVIPVIKGDSTTTVYDPRTGRTLPIPSSTVEENSIEEIVERILAELEKLGVPAQPVEILESA [r9_1211_JUSTAS],1.72 ± 0.032 kcal/mol,1.99 ± 0.035 kcal/mol,1.84 ± 0.034 kcal/mol
SAGGSAGGSAGDDGDKKPEVKVKVKIEPTIIPSPNGELMLMWTLEIEYPGNGEKREFTFMSAGGSAGGSAGG [r17_59_TrROS],1.92 ± 0.13 kcal/mol,1.33 ± 0.071 kcal/mol,1.58 ± 0.17 kcal/mol
SAGGSAGGSWGTISIRIEFNFMAFDPGLGQFSMFPMEVYISIPIEIPPPPPPPKPKYDNGKPKSAGGSAGGS [r12_140_TrROS],4.52 ± 0.21 kcal/mol,2.6 ± 0.28 kcal/mol,3.78 ± 0.29 kcal/mol
SAGGSAGGSPMPVIEEVPLNPVEEKPDPSSNTLTVKYPDGTYRILTKNPDGSYSFKVLPSSSISAGGSAGGS [r12_351_JUSTAS],1.56 ± 0.098 kcal/mol,1.67 ± 0.034 kcal/mol,1.71 ± 0.089 kcal/mol
SAGGMEVVFVVGSPEVAEAFREKHPDLPFVPVSLEDYRNPAPFEAAVAAVEARGHAVRVITVPDDPESAGGS [r8_376_JUSTAS],1.12 ± 0.05 kcal/mol,0.0526 ± 0.14 kcal/mol,0.796 ± 0.064 kcal/mol
